± gives the uncertainty stated by the source.
Experiment: protein stability index of a GFP-peptide fusion (yeast GPS) (PSI 1-4); higher = more stable; sorted into four equal gates, so the index is relative within each strain
Procedure, shortened: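 Plasmids isolated from each sorting gate were PCR-amplified and Illumina-sequenced, and barcodes assigned the reads to strains. The gates, four of equal size, were set by GFP/Cherry fluorescence ratio on mid-log cultures in leucine-free medium. These cultures were yeast carrying a pooled library of tiled 17-residue yeast protein peptides fused downstream of GFP on a plasmid that also expresses Cherry. The protein stability index is the sum of every gate's read frequency times its gate number.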

Work on ASVTKEILGTAQSVGCR [RPL12A] yielded a protein stability index (doa10∆) of 1.35 ± 0.087, a protein stability index (pdr5∆) of 1.51 ± 0.044 and a protein stability index (san1∆) of 1.35 ± 0.082. For the same sequence, the protein stability index (ubr1∆) was 1.61 ± 0.082.

AENQTGESTVESEKLVT [RPC82] gave a protein stability index (doa10∆) of 3.17 ± 0.089, a protein stability index (pdr5∆) of 3.29 ± 0.11 and a protein stability index (san1∆) of 3.15 ± 0.11. For the same sequence, the protein stability index (ubr1∆) was 3.45 ± 0.29.

Sequence FNYNIFMHDPSVFYNIA [SIR2] has a protein stability index (doa10∆) of 1.46 ± 0.055, a protein stability index (pdr5∆) of 1.69 ± 0.037 and a protein stability index (san1∆) of 1.5 ± 0.073. The protein stability index (ubr1∆) was 1.76 ± 0.048.

LALERMVPKRSTIITKA [YCS4] gave a protein stability index (doa10∆) of 1.28 ± 0.1, a protein stability index (pdr5∆) of 1.47 ± 0.066 and a protein stability index (san1∆) of 1.16 ± 0.11. For the same sequence, the protein stability index (ubr1∆) was 1.08 ± 0.091.

CLTKFQDEEQTEHLTEL [YCG1] gave a protein stability index (doa10∆) of 3.33 ± 0.13, a protein stability index (pdr5∆) of 3 ± 0.15 and a protein stability index (san1∆) of 3.46 ± 0.075. For the same sequence, the protein stability index (ubr1∆) was 2.85 ± 0.11.

In the case of RDLSEASVYPEYALPKT [RPS26A], the protein stability index (doa10∆) is reported as 3.11 ± 0.078, the protein stability index (pdr5∆) is reported as 3.01 ± 0.067 and the protein stability index (san1∆) is reported as 3.16 ± 0.045. The protein stability index (ubr1∆) was 3.09 ± 0.034.

MEADPSLHPLFEQFEKF [RPN9] gave a protein stability index (doa10∆) of 2.82 ± 0.073, a protein stability index (pdr5∆) of 2.84 ± 0.061 and a protein stability index (san1∆) of 2.39 ± 0.1. The protein stability index (ubr1∆) was 2.55 ± 0.05.

For LMRTFLYTLAQETEGTN [SIR3], the protein stability index (doa10∆) was 2.63 ± 0.12, the protein stability index (pdr5∆) was 2.63 ± 0.098 and the protein stability index (ubr1∆) was 2.35 ± 0.11.

For ALFVFYSPNTLGHPDNY [COB], the protein stability index (doa10∆) was 1.39 ± 0.09, the protein stability index (pdr5∆) was 1.36 ± 0.069 and the protein stability index (san1∆) was 2.06 ± 0.11. It also gave a protein stability index (ubr1∆) of 1.87 ± 0.054.

TDVEKSDPAAKKTATEP [SRP21] showed a protein stability index (doa10∆) of 3.2 ± 0.11, a protein stability index (pdr5∆) of 3.02 ± 0.085 and a protein stability index (san1∆) of 3.32 ± 0.046. For the same sequence, the protein stability index (ubr1∆) was 3.18 ± 0.096.

Work on GGDWERRNRYKTYYGIH [RPN7] yielded a protein stability index (doa10∆) of 1.24 ± 0.049, a protein stability index (pdr5∆) of 1.4 ± 0.074 and a protein stability index (san1∆) of 1.29 ± 0.13. For the same sequence, the protein stability index (ubr1∆) was 1.18 ± 0.044.

Sequence GDMTNSDAQSNLGSNVR [REC8] has a protein stability index (doa10∆) of 2.92 ± 0.28, a protein stability index (pdr5∆) of 3.52 ± 0.15 and a protein stability index (san1∆) of 2.87 ± 0.17. For the same sequence, the protein stability index (ubr1∆) was 3.25 ± 0.096.

Sequence DGGLEEETDEVSSESSD [SIR3] has a protein stability index (doa10∆) of 3.3 ± 0.099, a protein stability index (pdr5∆) of 3.3 ± 0.11 and a protein stability index (san1∆) of 3.2 ± 0.089. For the same sequence, the protein stability index (ubr1∆) was 3.24 ± 0.086.

Work on DSNYKWDLSVEDALYLG [PRE2] yielded a protein stability index (doa10∆) of 3.34 ± 0.085, a protein stability index (pdr5∆) of 3.35 ± 0.082 and a protein stability index (san1∆) of 3.33 ± 0.07. The protein stability index (ubr1∆) was 3.39 ± 0.049.

In the case of PQENDLESKMSEVGDAF [SMC3], the protein stability index (doa10∆) is reported as 2.73 ± 0.2, the protein stability index (pdr5∆) is reported as 3.36 ± 0.2 and the protein stability index (san1∆) is reported as 3.43 ± 0.11. The protein stability index (ubr1∆) was 2.98 ± 0.22.

With RAKALGIKVTNPKGRLA [RPL32] the protein stability index (doa10∆) was 3.62 ± 0.3, the protein stability index (pdr5∆) was 3.33 ± 0.18 and the protein stability index (san1∆) was 2.87 ± 0.23. It also gave a protein stability index (ubr1∆) of 3.39 ± 0.27.

In the case of TAEDSWAVISAFFREKG [RPB2], the protein stability index (doa10∆) is reported as 3.26 ± 0.12, the protein stability index (pdr5∆) is reported as 3.02 ± 0.073 and the protein stability index (san1∆) is reported as 2.61 ± 0.068. For the same sequence, the protein stability index (ubr1∆) was 2.94 ± 0.063.

For INYLALNAANYNIDANV [ECM29], the protein stability index (pdr5∆) was 2.76 ± 0.2 and the protein stability index (ubr1∆) was 2.72 ± 0.13.

With NAEATKEEFSSAENRDE [CSE2] the protein stability index (doa10∆) was 3.14 ± 0.082, the protein stability index (pdr5∆) was 3.25 ± 0.086 and the protein stability index (san1∆) was 3.35 ± 0.059. For the same sequence, the protein stability index (ubr1∆) was 3.28 ± 0.069.

Sequence SKLIPEVINKEIENATK [RPS1A] has a protein stability index (doa10∆) of 2.86 ± 0.22, a protein stability index (san1∆) of 2.78 ± 0.23 and a protein stability index (ubr1∆) of 3.16 ± 0.19.

Sequence LNELHPTLPTNHNKTKL [PRP8] has a protein stability index (doa10∆) of 2.88 ± 0.064, a protein stability index (pdr5∆) of 3.08 ± 0.062 and a protein stability index (san1∆) of 2.84 ± 0.056. The protein stability index (ubr1∆) was 2.72 ± 0.039.

In the case of SSFEENNDLESVSMLLQ [RRI2], the protein stability index (doa10∆) is reported as 2.98 ± 0.071, the protein stability index (pdr5∆) is reported as 3.23 ± 0.063 and the protein stability index (san1∆) is reported as 3 ± 0.048. It also gave a protein stability index (ubr1∆) of 3.13 ± 0.039.

With LIIQKIPSLQNNIEENL [ECM29] the protein stability index (doa10∆) was 2.91 ± 0.067, the protein stability index (pdr5∆) was 2.88 ± 0.066 and the protein stability index (san1∆) was 2.66 ± 0.065. The protein stability index (ubr1∆) was 2.98 ± 0.071.

Work on KGDLRRGFIKSEGSGSS [RPC53] yielded a protein stability index (doa10∆) of 3.43 ± 0.14, a protein stability index (pdr5∆) of 3.37 ± 0.1 and a protein stability index (san1∆) of 3.31 ± 0.07. For the same sequence, the protein stability index (ubr1∆) was 3.48 ± 0.15.

RFKYAPGTIVLYAERVQ [RPS3] gave a protein stability index (doa10∆) of 1.61 ± 0.072, a protein stability index (pdr5∆) of 1.65 ± 0.062 and a protein stability index (san1∆) of 1.56 ± 0.1. The protein stability index (ubr1∆) was 1.84 ± 0.093.

GGDTCSSDGALCMDSSY [POP1] gave a protein stability index (doa10∆) of 2.24 ± 0.054, a protein stability index (pdr5∆) of 2.54 ± 0.051 and a protein stability index (san1∆) of 1.83 ± 0.082. It also gave a protein stability index (ubr1∆) of 2.27 ± 0.036.

With NVEKPSSKPAFNLISNA [YLR335W/NUP2] the protein stability index (doa10∆) was 3.1 ± 0.056, the protein stability index (pdr5∆) was 3.15 ± 0.066 and the protein stability index (san1∆) was 3.14 ± 0.048. It also gave a protein stability index (ubr1∆) of 3.16 ± 0.044.

— the supplement of paper PMC9732359
